The text below walks through data of patent US20090104207A1 (published 2009).

*: point of attachment. Biotin = O=C1N[C@H]2[C@H](CS[C@H]2CCCCC(=O)*)N1

The target in one experiment is T1, IGP 2137 (hepatitis C virus).
T1 construct: also called RMAWDM
The experiment can be described thus: peptide ELISA (fine-mapping).

A further experiment addresses IGP 2242 (hepatitis C virus). The experiment in a line: ELISA, biotinylated peptide on streptavidin plates (FIG. 9). Background: An ELISA detects its analyte on a solid surface through an enzyme-linked reagent.
For another experiment, the target named is T2, IGP 2138 (hepatitis C virus).
T2 construct: also called WDMMMNW
The experiment is described as above.

The target in the next experiment is IGP 2241 (hepatitis C virus). The experiment is described as above.
The next experiment addresses IGP 3472 (hepatitis C virus). The experiment in a line: ELISA: biotinylated peptide on streptavidin-coated plate, serial dilution of 5D2; EC50 from Prism, shown as difference in log EC50 versus IGP 2254.
In experiment [1] the target is HCV E1 envelope glycoprotein, genotype 4a isolate UKN4a, on retroviral pseudoparticles (hepatitis C virus genotype 4a). The experiment can be described thus: cell-based or functional assay.
Experiment [2] deals with HCV E1 envelope glycoprotein, genotype 2a isolate JFH1, on retroviral pseudoparticles (hepatitis C virus genotype 2a, UniProt Q99IB8 192-383). The experiment in a line: cell-based or functional assay.
In experiment [3] the target is HCV E1 envelope glycoprotein, genotype 1a strain H77, on retroviral pseudoparticles (hepatitis C virus genotype 1a strain H77, UniProt P27958 192-383). The experiment can be described thus: cell-based or functional assay.
The next experiment has as its target T3, IGP 2254 (hepatitis C virus, SMILES …).
T3 peptide: Biotin-GGITGHRMAWDMMMNWS-NH2
The experiment in a line: BIAcore, antibody immobilized, peptide in solution. For orientation: Surface plasmon resonance follows binding to a sensor surface in real time, without labels.

HCV E1 envelope glycoprotein, genotype 1a strain H77, on retroviral pseudoparticles, sequence (P27958 192-383 limits assumed): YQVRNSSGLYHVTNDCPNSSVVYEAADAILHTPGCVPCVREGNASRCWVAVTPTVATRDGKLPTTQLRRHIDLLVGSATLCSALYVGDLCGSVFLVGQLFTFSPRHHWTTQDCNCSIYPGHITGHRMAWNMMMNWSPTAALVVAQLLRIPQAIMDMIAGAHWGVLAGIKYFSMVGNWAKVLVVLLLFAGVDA
HCV E1 envelope glycoprotein, genotype 2a isolate JFH1, on retroviral pseudoparticles, sequence (Q99IB8 192-383 limits assumed): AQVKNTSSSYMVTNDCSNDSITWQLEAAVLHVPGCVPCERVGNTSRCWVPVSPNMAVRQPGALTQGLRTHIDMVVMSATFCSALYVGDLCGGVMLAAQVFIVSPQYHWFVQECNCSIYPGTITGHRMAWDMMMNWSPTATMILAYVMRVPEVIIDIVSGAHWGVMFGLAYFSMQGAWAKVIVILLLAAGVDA

B1: 5D2 (antibody, V domains shown)
VH: QVQLVESGGGVVQPGRSLRLSCVASGFTFSHYAMHWIRQAPGKGLEWVAVVSYDGSNKFYVDSVKGRFTISRDNSKNTVYLQMNSLRAVDTAVYYCARDPGVVTGSWSDSDGPPIHWGQGTLVTVSS
VL: DIVVTQSPDSLAVSLGERATITCKSSQSVFYSSNNKNYLGWYQQKPGQPPKLLIYWASTRASGVPDRFSGSGSGTDFTLTISSLQAEDVAVYYCQQYYTSWAFGQGTKVEIKR
notes: also called 5D2H9; IGH 534
As usually defined, the Kd is the constant that tells how readily two partners part at equilibrium. A higher Kd goes with weaker binding. Usually koff stands for the first-order rate constant of dissociation. The low end stands for a long-lived complex, the high end for a short-lived complex. As a reminder, the kon is the rate constant with which the complex forms. Regarding B1, the binding result with IGP 2137 is recorded as “no binding”; in the experiment with IGP 2242, “binds”; in the experiment with IGP 2138, “no binding”; in the experiment with IGP 2241 it was “no binding”; with IGP 3472, “no binding”. Also, the “lowest concentration of antibody exhibiting at least 50% neutralization of HCVpp versus control” value is more than 25 µg/mL in [1], 6.2 µg/mL in experiment [2] and 25 µg/mL in [3]. The Kd with IGP 2254 stood at 60 pM. Moreover, the off-rate (koff) with IGP 2254 worked out at 9.46e-05 s⁻¹. In addition, the kon in the experiment with IGP 2254 is 1.71e+06 M⁻¹ s⁻¹.
